B1: Azoarcus group I ribozyme (parent)
chain: GUGCCUUGCGCCGGGAAACCACGCAAGGGAUGGUGUCAAAUUCGGCGAAACCUAAGCGCCCGCCCGGGCGUAUGGCAACGCCGAGCCAAGCUUCGGCGCCUGCGCCGAUGAAGGUGUAGAGACUAGACGGCACCCACCUAAGGCAAACGCUAUGGUGAAGGCAUAGUCCAGGGAGUGGCGAAAGUCACACAAACCGG

Variants of: B1
Experiment: reverse-splicing fitness (ratio to wild type); higher = more active; in vitro selection; Mg2+ level not given
How it was run: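 An in vitro group I ribozyme library with randomized positions was T7-transcribed and gel-purified. In triplicate, 10 pmol RNA in EPPS pH 7.5 was reacted with 50 pmoles of a 30-nt RNA substrate for 1 h at 37 °C across several added MgCl2 levels (1–48 mM), then stopped with EDTA. Products were reverse transcribed from a substrate-complementary primer, PCR-amplified and sequenced (HiSeq 4000). Fitness is a variant's read proportion after selection over that before, normalised to wild type.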

Variant	reverse-splicing fitness
C82G A111G A120U C150G U176G	0.00299
C82G A111G A120U C150U	0.0348
C82G A111G A120U C150U C169A	0.00504
C82G A111G A120U C150U C169A U176A	0.00519
C82G A111G A120U C150U C169A U176C	0.00376
C82G A111G A120U C150U C169A U176G	0.00204
C82G A111G A120U C150U C169G	0.00538
C82G A111G A120U C150U C169G U176A	0.00758
C82G A111G A120U C150U C169G U176C	0.00412
C82G A111G A120U C150U C169G U176G	0.0024
C82G A111G A120U C150U C169U	0.00493
C82G A111G A120U C150U C169U U176A	0.00523
C82G A111G A120U C150U C169U U176C	0.0051
C82G A111G A120U C150U C169U U176G	0.00214
C82G A111G A120U C150U U176A	0.0115
C82G A111G A120U C150U U176C	0.0164
C82G A111G A120U C150U U176G	0.00497
C82G A111G A120U C169A	0.00418
C82G A111G A120U C169A U176A	0.00371
C82G A111G A120U C169A U176C	0.00309
C82G A111G A120U C169A U176G	0.00169
C82G A111G A120U C169G	0.00481
C82G A111G A120U C169G U176A	0.00289
C82G A111G A120U C169G U176C	0.00434

Variant	reverse-splicing fitness
C82G A111G A120U C169G U176G	0.00169
C82G A111G A120U C169U	0.00572
C82G A111G A120U C169U U176A	0.00385
C82G A111G A120U C169U U176C	0.0055
C82G A111G A120U C169U U176G	0.00158
C82G A111G A120U U176A	0.018
C82G A111G A120U U176C	0.0294
C82G A111G A120U U176G	0.00562
C82G A111G A145C	0.392
C82G A111G A145C C150A	0.0192
C82G A111G A145C C150A C169A	0.00763
C82G A111G A145C C150A C169A U176A	0.0136
C82G A111G A145C C150A C169A U176C	0.00683
C82G A111G A145C C150A C169A U176G	0.00663
C82G A111G A145C C150A C169G	0.00798
C82G A111G A145C C150A C169G U176A	0.0228
C82G A111G A145C C150A C169G U176C	0.0122
C82G A111G A145C C150A C169G U176G	0.00577
C82G A111G A145C C150A C169U	0.0097
C82G A111G A145C C150A C169U U176A	0.0123
C82G A111G A145C C150A C169U U176C	0.00961
C82G A111G A145C C150A C169U U176G	0.00582
C82G A111G A145C C150A U176A	0.0205
C82G A111G A145C C150A U176C	0.0173

Variant	reverse-splicing fitness
C82G A111G A145C C150A U176G	0.00955
C82G A111G A145C C150G	0.0378
C82G A111G A145C C150G C169A	0.00828
C82G A111G A145C C150G C169A U176A	0.00983
C82G A111G A145C C150G C169A U176C	0.0105
C82G A111G A145C C150G C169A U176G	0.00615
C82G A111G A145C C150G C169G	0.00758
C82G A111G A145C C150G C169G U176A	0.0101
C82G A111G A145C C150G C169G U176C	0.00856
C82G A111G A145C C150G C169G U176G	0.0057
C82G A111G A145C C150G C169U	0.00923
C82G A111G A145C C150G C169U U176A	0.00922
C82G A111G A145C C150G C169U U176C	0.013
C82G A111G A145C C150G C169U U176G	0.00582
C82G A111G A145C C150G U176A	0.0197
C82G A111G A145C C150G U176C	0.0294
C82G A111G A145C C150G U176G	0.00683
C82G A111G A145C C150U	0.0841
C82G A111G A145C C150U C169A	0.00783
C82G A111G A145C C150U C169A U176A	0.0123
C82G A111G A145C C150U C169A U176C	0.00686
C82G A111G A145C C150U C169A U176G	0.00694
C82G A111G A145C C150U C169G	0.00753
C82G A111G A145C C150U C169G U176A	0.0203

Variant	reverse-splicing fitness
C82G A111G A145C C150U C169G U176C	0.0114
C82G A111G A145C C150U C169G U176G	0.00619
C82G A111G A145C C150U C169U	0.0102
C82G A111G A145C C150U C169U U176A	0.0142
C82G A111G A145C C150U C169U U176C	0.0103
C82G A111G A145C C150U C169U U176G	0.0062
C82G A111G A145C C150U U176A	0.0557
C82G A111G A145C C150U U176C	0.0592
C82G A111G A145C C150U U176G	0.0267
C82G A111G A145C C169A	0.00733
C82G A111G A145C C169A U176A	0.0111
C82G A111G A145C C169A U176C	0.00787
C82G A111G A145C C169A U176G	0.00537
C82G A111G A145C C169G	0.00994
C82G A111G A145C C169G U176A	0.022
C82G A111G A145C C169G U176C	0.0131
C82G A111G A145C C169G U176G	0.00501
C82G A111G A145C C169U	0.0132
C82G A111G A145C C169U U176A	0.0135
C82G A111G A145C C169U U176C	0.0106
C82G A111G A145C C169U U176G	0.00545
C82G A111G A145C U176A	0.267
C82G A111G A145C U176C	0.258
C82G A111G A145C U176G	0.116

Variant	reverse-splicing fitness
C82G A111G A145G	0.431
C82G A111G A145G C150A	0.0499
C82G A111G A145G C150A C169A	0.011
C82G A111G A145G C150A C169A U176A	0.0234
C82G A111G A145G C150A C169A U176C	0.0222
C82G A111G A145G C150A C169A U176G	0.00692
C82G A111G A145G C150A C169G	0.00938
C82G A111G A145G C150A C169G U176A	0.0196
C82G A111G A145G C150A C169G U176C	0.0258
C82G A111G A145G C150A C169G U176G	0.006
C82G A111G A145G C150A C169U	0.0105
C82G A111G A145G C150A C169U U176A	0.0155
C82G A111G A145G C150A C169U U176C	0.0162
C82G A111G A145G C150A C169U U176G	0.00674
C82G A111G A145G C150A U176A	0.0383
C82G A111G A145G C150A U176C	0.051
C82G A111G A145G C150A U176G	0.0208
C82G A111G A145G C150G	0.0374
C82G A111G A145G C150G C169A	0.00978
C82G A111G A145G C150G C169A U176A	0.015
C82G A111G A145G C150G C169A U176C	0.0146
C82G A111G A145G C150G C169A U176G	0.0094
C82G A111G A145G C150G C169G	0.00774
C82G A111G A145G C150G C169G U176A	0.011

Variant	reverse-splicing fitness
C82G A111G A145G C150G C169G U176C	0.0126
C82G A111G A145G C150G C169G U176G	0.0064
C82G A111G A145G C150G C169U	0.0102
C82G A111G A145G C150G C169U U176A	0.012
C82G A111G A145G C150G C169U U176C	0.0131
C82G A111G A145G C150G C169U U176G	0.00803
C82G A111G A145G C150G U176A	0.0145
C82G A111G A145G C150G U176C	0.026
C82G A111G A145G C150G U176G	0.00812
C82G A111G A145G C150U	0.316
C82G A111G A145G C150U C169A	0.0104
C82G A111G A145G C150U C169A U176A	0.0171
C82G A111G A145G C150U C169A U176C	0.0189
C82G A111G A145G C150U C169A U176G	0.00698
C82G A111G A145G C150U C169G	0.0106
C82G A111G A145G C150U C169G U176A	0.017
C82G A111G A145G C150U C169G U176C	0.0216
C82G A111G A145G C150U C169G U176G	0.00635
C82G A111G A145G C150U C169U	0.0137
C82G A111G A145G C150U C169U U176A	0.0152
C82G A111G A145G C150U C169U U176C	0.0151
C82G A111G A145G C150U C169U U176G	0.00678
C82G A111G A145G C150U U176A	0.174
C82G A111G A145G C150U U176C	0.213

Variant	reverse-splicing fitness
C82G A111G A145G C150U U176G	0.068
C82G A111G A145G C169A	0.00875
C82G A111G A145G C169A U176A	0.0158
C82G A111G A145G C169A U176C	0.0235
C82G A111G A145G C169A U176G	0.0057
C82G A111G A145G C169G	0.0101
C82G A111G A145G C169G U176A	0.016
C82G A111G A145G C169G U176C	0.0231
C82G A111G A145G C169G U176G	0.00505
C82G A111G A145G C169U	0.0129
C82G A111G A145G C169U U176A	0.0132
C82G A111G A145G C169U U176C	0.0155
C82G A111G A145G C169U U176G	0.0049
C82G A111G A145G U176A	0.25
C82G A111G A145G U176C	0.27
C82G A111G A145G U176G	0.0821
C82G A111G A145U	0.454
C82G A111G A145U C150A	0.0314
C82G A111G A145U C150A C169A	0.00827
C82G A111G A145U C150A C169A U176A	0.0154
C82G A111G A145U C150A C169A U176C	0.0131
C82G A111G A145U C150A C169A U176G	0.00645
C82G A111G A145U C150A C169G	0.00845
